This is an account of results in PMC10491584, “Structural convergence endows nuclear transport receptor Kap114p with a transcriptional repressor function toward TATA-binding protein” (Nature Communications, 2023).

Settings in all cases: both partners purified
The target in one test is T1, Kap95p (S. cerevisiae, UniProt Q06142 1-861).
T1 construct: Kap95p, S. cerevisiae, full length; The purification paragraph is headed for Kap114p proteins; that Kap95p was treated alike is surmised; source: E. coli, GST-tagged construct in modified pGEX6p1; purification told for the GST-tagged proteins; not shown: GST, N-terminal, cleaved
T1 sequence (looked up): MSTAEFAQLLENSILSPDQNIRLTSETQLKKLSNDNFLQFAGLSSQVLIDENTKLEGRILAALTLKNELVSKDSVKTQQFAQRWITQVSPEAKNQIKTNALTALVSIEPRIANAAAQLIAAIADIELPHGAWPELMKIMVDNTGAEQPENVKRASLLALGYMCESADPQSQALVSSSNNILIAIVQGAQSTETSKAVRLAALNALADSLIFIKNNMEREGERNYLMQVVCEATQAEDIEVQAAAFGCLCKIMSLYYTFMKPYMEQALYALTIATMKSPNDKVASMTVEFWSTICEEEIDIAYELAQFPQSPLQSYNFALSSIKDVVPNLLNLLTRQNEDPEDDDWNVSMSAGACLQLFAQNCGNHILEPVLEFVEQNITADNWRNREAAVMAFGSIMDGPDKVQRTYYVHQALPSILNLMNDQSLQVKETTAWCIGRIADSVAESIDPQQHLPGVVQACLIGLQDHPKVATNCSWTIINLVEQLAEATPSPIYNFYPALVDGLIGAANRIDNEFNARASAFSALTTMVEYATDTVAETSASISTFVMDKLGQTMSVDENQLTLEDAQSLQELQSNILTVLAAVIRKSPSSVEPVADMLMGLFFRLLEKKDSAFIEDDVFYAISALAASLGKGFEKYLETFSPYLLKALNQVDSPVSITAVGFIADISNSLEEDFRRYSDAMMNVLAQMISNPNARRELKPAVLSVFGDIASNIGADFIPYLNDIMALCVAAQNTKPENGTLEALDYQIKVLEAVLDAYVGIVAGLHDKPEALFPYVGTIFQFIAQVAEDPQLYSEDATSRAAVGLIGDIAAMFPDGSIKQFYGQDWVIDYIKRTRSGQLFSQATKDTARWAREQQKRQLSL
Nature of the test: ITC; Kap95p with wild type or R141A yTBP^C; which protein was in the cell is not told for Kap95p; n = 3. (In ITC the heat of successive injections is recorded.)

The target in test [1] is T2, Kap114p (wild type) (S. cerevisiae, UniProt P53067 1-1004).
T2 construct: Kap114p, S. cerevisiae, full length, amplified from total genomic DNA; GST tag removed with PreScission protease; also called karyopherin-β Kap114p; source: E. coli Rosetta, purified (GST resin, MonoQ, Superdex 200); not shown: GST, N-terminal, cleaved
T2 sequence (looked up): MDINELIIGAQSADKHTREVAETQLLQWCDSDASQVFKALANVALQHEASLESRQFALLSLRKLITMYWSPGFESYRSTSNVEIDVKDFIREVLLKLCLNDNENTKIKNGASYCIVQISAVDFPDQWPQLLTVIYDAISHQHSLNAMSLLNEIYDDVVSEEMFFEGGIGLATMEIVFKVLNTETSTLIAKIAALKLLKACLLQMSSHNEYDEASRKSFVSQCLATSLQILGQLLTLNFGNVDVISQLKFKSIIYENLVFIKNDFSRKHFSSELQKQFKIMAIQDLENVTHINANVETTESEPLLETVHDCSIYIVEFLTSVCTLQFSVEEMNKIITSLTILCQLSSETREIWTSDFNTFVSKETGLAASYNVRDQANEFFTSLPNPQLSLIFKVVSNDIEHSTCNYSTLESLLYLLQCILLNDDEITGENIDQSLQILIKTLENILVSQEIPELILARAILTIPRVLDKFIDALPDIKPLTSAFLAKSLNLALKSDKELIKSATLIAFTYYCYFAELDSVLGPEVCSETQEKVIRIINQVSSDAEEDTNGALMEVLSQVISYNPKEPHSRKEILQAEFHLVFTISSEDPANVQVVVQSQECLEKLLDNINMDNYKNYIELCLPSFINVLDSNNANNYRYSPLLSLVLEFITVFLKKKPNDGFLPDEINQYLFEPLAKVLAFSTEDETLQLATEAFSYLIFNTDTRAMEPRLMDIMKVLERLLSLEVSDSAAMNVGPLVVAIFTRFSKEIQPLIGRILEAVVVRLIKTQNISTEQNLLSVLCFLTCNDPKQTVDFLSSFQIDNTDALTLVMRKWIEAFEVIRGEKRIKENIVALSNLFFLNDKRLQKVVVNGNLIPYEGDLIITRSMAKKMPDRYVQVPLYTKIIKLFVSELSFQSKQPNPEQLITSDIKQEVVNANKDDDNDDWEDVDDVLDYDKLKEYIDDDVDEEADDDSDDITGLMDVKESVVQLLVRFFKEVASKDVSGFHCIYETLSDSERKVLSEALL
Nature of the test: cryo-EM structure; components purified from E. coli, mixed at an equal molar ratio, cross-linked with 0.01% glutaraldehyde, purified by SEC; Titan Krios 300 keV. A general note: SEC sorts molecules by how far they enter the pores of the column.

Test [2] has as its target T2, Kap114p (wild type). Nature of the test: ITC; MicroCal iTC200, 25 °C, 20 mM HEPES pH 7.4, 150 mM NaCl; 25 or 50 μM wild type or mutant Kap114p in the cell, 250 or 500 μM wild-type or mutant yTBP^C in the syringe; triplicate.
For the next test, the target named is T3, Kap114pΔ(932-941) (S. cerevisiae, UniProt P53067 1-1004, Δ(932-941)).
T3 construct: Kap114p, S. cerevisiae, full length with residues 932-941 deleted; also called Kap114p deletion mutant lacking the α-helix of the HEAT19 loop (a.a. 932-941); source: E. coli Rosetta, purified (GST resin, MonoQ, Superdex 200); not shown: GST, N-terminal, cleaved
T3 sequence (looked up): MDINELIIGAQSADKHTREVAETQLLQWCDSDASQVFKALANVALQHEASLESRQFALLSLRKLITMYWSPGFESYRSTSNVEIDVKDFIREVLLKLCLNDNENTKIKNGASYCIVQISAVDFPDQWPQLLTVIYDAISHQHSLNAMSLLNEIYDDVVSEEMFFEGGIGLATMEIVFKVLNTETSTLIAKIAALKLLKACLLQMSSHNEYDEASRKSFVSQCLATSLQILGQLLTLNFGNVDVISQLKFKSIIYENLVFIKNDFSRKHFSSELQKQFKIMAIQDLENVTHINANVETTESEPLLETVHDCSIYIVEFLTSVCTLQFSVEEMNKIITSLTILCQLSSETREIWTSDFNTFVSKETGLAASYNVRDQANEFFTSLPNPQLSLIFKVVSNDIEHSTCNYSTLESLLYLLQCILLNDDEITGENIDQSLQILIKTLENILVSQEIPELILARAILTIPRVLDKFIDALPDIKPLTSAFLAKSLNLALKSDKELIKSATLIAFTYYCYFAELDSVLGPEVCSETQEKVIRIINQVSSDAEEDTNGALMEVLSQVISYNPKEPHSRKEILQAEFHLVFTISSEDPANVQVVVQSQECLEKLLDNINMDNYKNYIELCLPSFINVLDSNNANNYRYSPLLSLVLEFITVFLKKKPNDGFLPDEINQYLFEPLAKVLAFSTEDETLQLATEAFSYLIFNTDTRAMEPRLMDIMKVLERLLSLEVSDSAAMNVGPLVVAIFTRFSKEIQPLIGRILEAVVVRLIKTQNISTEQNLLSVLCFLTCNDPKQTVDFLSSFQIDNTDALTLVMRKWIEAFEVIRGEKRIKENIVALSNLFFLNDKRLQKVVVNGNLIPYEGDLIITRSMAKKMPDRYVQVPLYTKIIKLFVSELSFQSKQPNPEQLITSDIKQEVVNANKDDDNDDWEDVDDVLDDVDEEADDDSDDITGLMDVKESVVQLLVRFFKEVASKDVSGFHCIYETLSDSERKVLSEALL
The test is described as above.

B1: core domain of yeast TATA-box binding protein (yTBP^C), wild type (domain or fragment, S. cerevisiae, UniProt P13393 61-240, looked up)
chain: SGIVPTLQNIVATVTLGCRLDLKTVALHARNAEYNPKRFAAVIMRIREPKTTALIFASGKMVVTGAKSEDDSKLASRKYARIIQKIGFAAKFTDFKIQNIVGSCDVKFPIRLEGLAFSHGTFSSYEPELFPGLIYRMVKPKIVLLIFVSGKIVLTGAKQREEIYQAFEAIYPVLSEFRKM
notes: 61-240; His tag removed with PreScission protease; also called yTBP core domain; source: E. coli Rosetta, purified (Ni-NTA, HiTrap SP, Superdex 75); not shown: His6, N-terminal, cleaved
A word on the Kd: it is the constant that tells how readily two partners part at equilibrium. Low readings indicate a tighter complex, high ones a looser complex. For orientation: stoichiometry N means a count of units in the complex or per binding partner. For the molecule B1, the dissociation constant (Kd) in the test with Kap95p was ~8100 nM; in the test with Kap114p (wild type) [2], ~1 nM; with Kap114pΔ(932-941) it was ~158 nM. Further, the “stoichiometry N” value in the test with Kap114p (wild type) [1] was determined as 1.
